Data taken from US20200317768A1 (published 2020).
Numbering of substitutions follows the chain as printed. In names and notes the source's numbering stands.

T1: cynomolgus monkey FcγRIIa3 extracellular domain, C-terminal His-tag (cynomolgus monkey)
T1 construct: also called cyno FcγRIIa3; cynoFcgRIIa3; not shown: His-tag added to C-terminus
T1 chain: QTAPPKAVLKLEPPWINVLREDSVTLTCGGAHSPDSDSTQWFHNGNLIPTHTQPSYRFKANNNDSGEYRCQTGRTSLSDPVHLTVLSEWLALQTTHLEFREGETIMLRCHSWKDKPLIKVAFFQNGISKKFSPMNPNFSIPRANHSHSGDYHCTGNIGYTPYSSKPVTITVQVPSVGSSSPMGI

T2: cynomolgus monkey FcγRIIa1 extracellular domain, C-terminal His-tag (cynomolgus monkey)
T2 construct: also called cyno FcγRIIa1; cynoFcgRIIa1; not shown: His-tag added to C-terminus
T2 chain: T1 chain with T95P, A121T, S128A, P133H, N135D

T3: cynomolgus monkey FcγRIIa3 extracellular domain, His-tagged (cynomolgus monkey)
T3 construct: also called cyno FcgRIIa3; cynoFcγRIIa3; not shown: His-tag added to the C-terminus
T3 chain: T1 chain

T4: human FcγRIIb extracellular domain, His-tagged (human, UniProt P31994 43-217)
T4 construct: also called human FcgRIIb; not shown: His-tag added to the C-terminus
T4 sequence: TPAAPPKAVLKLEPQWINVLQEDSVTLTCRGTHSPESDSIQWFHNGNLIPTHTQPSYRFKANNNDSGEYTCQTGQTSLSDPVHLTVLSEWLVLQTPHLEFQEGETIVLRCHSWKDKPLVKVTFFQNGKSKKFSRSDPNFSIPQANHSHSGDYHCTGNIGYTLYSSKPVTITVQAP

T5: human FcγRIIaH extracellular domain, His-tagged (human, UniProt P12318 34-217)
T5 construct: also called human FcgRIIaH; FcγRIIa (type H); not shown: His-tag added to the C-terminus
T5 sequence: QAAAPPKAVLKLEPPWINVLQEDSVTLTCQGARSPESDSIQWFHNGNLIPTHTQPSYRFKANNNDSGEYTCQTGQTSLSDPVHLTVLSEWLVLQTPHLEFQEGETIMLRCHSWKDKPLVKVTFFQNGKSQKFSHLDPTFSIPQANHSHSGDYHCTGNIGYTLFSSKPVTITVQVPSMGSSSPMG

T6: human FcγRIIaR extracellular domain, His-tagged (human, UniProt P12318 34-217)
T6 construct: also called human FcgRIIaR; FcγRIIa (type R); not shown: His-tag added to the C-terminus
T6 chain: T5 sequence with H134R

B1: MS_M103205H795-SG1/M103202L889-SK1 (antibody, human IgG1, kappa)
heavy: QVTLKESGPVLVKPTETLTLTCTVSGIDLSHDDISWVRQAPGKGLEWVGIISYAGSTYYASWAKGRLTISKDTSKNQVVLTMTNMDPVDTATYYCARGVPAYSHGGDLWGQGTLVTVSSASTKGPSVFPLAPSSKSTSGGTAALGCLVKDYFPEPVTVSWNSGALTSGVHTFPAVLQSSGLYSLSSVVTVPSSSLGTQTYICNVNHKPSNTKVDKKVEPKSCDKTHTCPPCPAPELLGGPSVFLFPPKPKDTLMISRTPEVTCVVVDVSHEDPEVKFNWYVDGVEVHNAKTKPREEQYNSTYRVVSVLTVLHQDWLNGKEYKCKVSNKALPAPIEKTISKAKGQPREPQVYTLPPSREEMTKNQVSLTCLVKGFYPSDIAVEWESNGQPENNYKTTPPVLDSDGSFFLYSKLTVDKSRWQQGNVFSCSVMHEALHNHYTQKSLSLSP
light: DIVMTQSPATLSLSPGERATLSCTSSQSVYHANWLSWFQQKPGQPPKLLIYWASTLAYGVPSRFSGSGSGTDFTLTISSLQPEDAATYYCAGGYGGGRYAFGQGTKVEIKRTVAAPSVFIFPPSDEQLKSGTASVVCLLNNFYPREAKVQWKVDNALQSGNSQESVTEQDSKDSTYSLSSTLTLSKADYEKHKVYACEVTHQGLSSPVTKSFNRGEC
notes: Parent antibody with SG1 human heavy chain constant region; also called MS1032LO06-SG1
B2: M103205H795-MY101 / M103202L889-SK1 (antibody, human IgG1, kappa)
heavy: QVTLKESGPVLVKPTETLTLTCTVSGIDLSHDDISWVRQAPGKGLEWVGIISYAGSTYYASWAKGRLTISKDTSKNQVVLTMTNMDPVDTATYYCARGVPAYSHGGDLWGQGTLVTVSSASTKGPSVFPLAPSSKSTSGGTAALGCLVKDYFPEPVTVSWNSGALTSGVHTFPAVLQSSGLYSLSSVVTVPSSSLGTQTYICNVNHKPSNTKVDKKVEPKSCDKTHTCPPCPAPELLNGPSVFLFPPKPKDTLMISRTPEVTCVVVDVSEEDPEVKFNWYVDGVEVHNAKTKPREEQYNSTYRVVSVLTVLHQDWLNGKEYKCKVSNKALPKPIEKTISKAKGQPREPQVYTLPPSREEMTKNQVSLTCLVKGFYPSDIAVEWESNGQPENNYKTTPMVLDSDGSFFLYSKLTVDKSRWQQGNVFSCSVMHEALHNHYTQKSLSLSP
light: B1 light
notes: CH with G236N/H268E/A330K/P396M against SG1 (EU numbering); also called MS1032LO06-MY101
B3: M103205H795-MY201 / M103202L889-SK1 (antibody, human IgG1, kappa)
heavy: B2 heavy with E270D, M398P
light: B1 light
notes: CH with G236N/H268D/A330K against SG1 (EU numbering); also called MS1032LO06-MY201
B4: M103205H795-MY205 / M103202L889-SK1 (antibody, human IgG1, kappa)
heavy: B2 heavy with E270D, Q297L, M398P
light: B1 light
notes: CH with G236N/H268D/Q295L/A330K against SG1 (EU numbering); also called MS1032LO06-MY205
B5: M103205H795-MY335 / M103202L889-SK1 (antibody, human IgG1, kappa)
heavy: B2 heavy with N238T, E270D, Q313R, M398P, D415K
light: B1 light
notes: CH with G236T/H268D/Q311R/A330K/D413K against SG1 (EU numbering); also called MS1032LO06-MY335
B6: M103205H795-MY351 / M103202L889-SK1 (antibody, human IgG1, kappa)
heavy: B2 heavy with E270D, Q313R, M398P, D415K
light: B1 light
notes: CH with G236N/H268D/Q311R/A330K/D413K against SG1 (EU numbering); also called MS1032LO06-MY351
B7: M103205H795-MY344 / M103202L889-SK1 (antibody, human IgG1, kappa)
heavy: B2 heavy with E270D, Q297L, Q313R, M398P, D415K
light: B1 light
notes: CH with G236N/H268D/Q295L/Q311R/A330K/D413K against SG1 (EU numbering); also called MS1032LO06-MY344
B8: M103205H795-PK2 / M103202L889-SK1 (antibody, human IgG1, kappa)
heavy: B2 heavy with S402R, D415K
light: B1 light
notes: CH with G236N/H268E/A330K/P396M/S400R/D413K against SG1 (EU numbering); also called MS1032LO06-PK2; MS103205H795-PK2
B9: MS1032LO06-SG1 (M103205H795-SG1/M103202L889-SK1) (antibody, human IgG1, kappa)
heavy: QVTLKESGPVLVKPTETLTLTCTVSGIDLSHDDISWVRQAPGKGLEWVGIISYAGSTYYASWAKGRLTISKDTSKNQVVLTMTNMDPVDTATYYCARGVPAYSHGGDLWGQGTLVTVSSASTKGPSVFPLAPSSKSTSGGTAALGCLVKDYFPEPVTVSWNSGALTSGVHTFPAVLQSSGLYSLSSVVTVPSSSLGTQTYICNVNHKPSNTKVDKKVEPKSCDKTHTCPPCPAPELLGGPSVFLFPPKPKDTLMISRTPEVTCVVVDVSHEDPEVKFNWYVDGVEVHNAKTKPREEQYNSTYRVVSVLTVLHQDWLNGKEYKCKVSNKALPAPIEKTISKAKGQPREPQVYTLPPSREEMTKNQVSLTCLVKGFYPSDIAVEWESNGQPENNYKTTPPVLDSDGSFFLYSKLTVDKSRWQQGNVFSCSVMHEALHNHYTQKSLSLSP
light: B1 light
notes: Anti-latent myostatin antibody; Parent of the Fc variants; copies: 2 + 2
B10: M103205H795-MY201/M103202L889-SK1 (antibody, human IgG1, kappa)
heavy: B2 heavy with E270D, M398P
light: B1 light
notes: Fc variant G236N/H268D/A330K (EU numbering) of SG1; also called MS1032LO06-MY201; copies: 2 + 2
B11: M103205H795-MY261/M103202L889-SK1 (antibody, human IgG1, kappa)
heavy: B2 heavy with N238H, E270D, M398P
light: B1 light
notes: copies: 2 + 2
B12: M103205H795-MY262/M103202L889-SK1 (antibody, human IgG1, kappa)
heavy: B2 heavy with N238V, E270D, M398P
light: B1 light
notes: copies: 2 + 2
B13: M103205H795-MY260/M103202L889-SK1 (antibody, human IgG1, kappa)
heavy: B2 heavy with N238M, E270D, M398P
light: B1 light
notes: copies: 2 + 2

Target: T1, cynomolgus monkey FcγRIIa3 …
Assay: SPR (BIACORE); KD of SG1 / KD of variant;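 further: relative to parent M103205H795-SG1 carrying the SG1 human heavy chain constant region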

Row | Binder | KD fold (SG1 = 1) [fold]
1 | B1 | 1
2 | B2 | 4.7
3 | B3 | 4.4
4 | B4 | 5.7
5 | B5 | 6.3
6 | B6 | 8.9
7 | B7 | 7.7
8 | B8 | 4.5

Target: T7, human FcγRIIIaV extracellular domain, C-terminal His-tag (human, UniProt P08637 17-208)
T7 construct: also called FcgRIIIaV; not shown: His-tag added to C-terminus
T7 sequence (P08637 17-208 F176V): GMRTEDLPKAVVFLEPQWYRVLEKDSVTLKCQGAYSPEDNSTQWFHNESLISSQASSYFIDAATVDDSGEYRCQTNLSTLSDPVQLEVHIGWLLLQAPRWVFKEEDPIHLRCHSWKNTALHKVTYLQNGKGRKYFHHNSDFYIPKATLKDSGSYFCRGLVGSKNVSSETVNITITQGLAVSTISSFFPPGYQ
Assay: SPR (BIACORE); KD of SG1 / KD of variant;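 further: relative to parent M103205H795-SG1 carrying the SG1 human heavy chain constant region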

Row | Binder | KD fold (SG1 = 1) [fold]
9 | B1 | 1
10 | B2 | 0.07
11 | B3 | 0.03
12 | B4 | 0.06
13 | B5 | 0.16
14 | B6 | 0.06
15 | B7 | 0.04
16 | B8 | 0.06

Target: T8, cynomolgus monkey FcγRIIIaS extracellular domain, C-terminal His-tag (cynomolgus monkey, UniProt A3RFZ7 21-206 (rhesus entry))
T8 construct: also called cyno FcγRIIIaS; cynoFcγRIIIaS; not shown: His-tag added to C-terminus
T8 sequence (A3RFZ7 21-206): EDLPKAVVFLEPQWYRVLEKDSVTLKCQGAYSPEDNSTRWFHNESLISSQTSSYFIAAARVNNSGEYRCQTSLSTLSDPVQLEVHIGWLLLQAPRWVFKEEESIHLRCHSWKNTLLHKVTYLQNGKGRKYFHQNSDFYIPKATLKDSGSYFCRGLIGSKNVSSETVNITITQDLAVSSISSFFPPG
Assay: SPR (BIACORE); KD of SG1 / KD of variant;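 further: relative to parent M103205H795-SG1 carrying the SG1 human heavy chain constant region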

Row | Binder | KD fold (SG1 = 1) [fold]
17 | B1 | 1
18 | B2 | 0.11
19 | B3 | 0.06
20 | B4 | 0.06
21 | B5 | 0.24
22 | B6 | 0.07
23 | B7 | 0.07
24 | B8 | 0.09

Target: T2, cynomolgus monkey FcγRIIa1 …
Assay: SPR (BIACORE); KD of SG1 / KD of variant;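 further: relative to parent M103205H795-SG1 carrying the SG1 human heavy chain constant region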

Row | Binder | KD fold (SG1 = 1) [fold]
25 | B1 | 1
26 | B2 | 2.9
27 | B3 | 2.3
28 | B4 | 3.6
29 | B5 | 1.6
30 | B6 | 3.5
31 | B7 | 3.6
32 | B8 | 2.5

Target: T3, cynomolgus monkey FcγRIIa3 …
Assay: SPR (BIACORE), antibody captured, FcγR as analyte, 25°C
Method: (§1) The kinetic analysis of interactions between these antibodies and FcγR was carried out using BIACORE® T200 or BIACORE® 4000 (GE Healthcare). HBS-EP+ (GE Healthcare) was used as the running buffer, and the measurement temperature was set to 25° C. A chip produced by immobilizing Protein A. Protein A/G or mouse anti-human IgG kappa light chain (BD Biosciences) onto a Series S Sensor Chip CM4 or CM5 (GE Healthcare) by the amine-coupling method was used. […] After the measurement, the antibody captured on the chip was washed off by allowing reaction with 10 mM glycine-HCl, pH1.5 and 25 mM NaOH so that the chip was regenerated and used repeatedly. The sensorgrams obtained as measurement results were analyzed by the 1:1 Langmuir binding model using the BIACORE® Evaluation Software to calculate the binding rate constant ka (L/mol/s) and dissociation rate constant kd (l/s), and the dissociation constant KD (mol/L) was calculated from these values. […] Regarding such interactions, KD values were calculated using the following 1:1 binding model described in BIACORE® T100 Software Handbook BR1006-48 Edition AE.
(§2) The behavior of interacting molecules according to the 1:1 binding model on BIACORE® can be described by Equation 1: Req=C·R max/(KD+C)+RI, wherein, Req is a plot of steady-state binding levels to analyte concentration. C is concentration, RI is bulk refractive index contribution in the sample, and Rmax is analyte binding capacity of the surface. When this equation is rearranged, KD can be expressed as Equation 2: KD=C·Rmax/(Req−RI)−C. KD can be calculated by substituting the values of Rmax, RI, and C into Equation 1 or Equation 2. From the current measurement conditions, RI=0, C=2 μmol/L can be used.

Row | Binder | Kd [nM]
33 | B9 | 17000
34 | B10 | 3900
35 | B11 | 6500
36 | B12 | 8000
37 | B13 | 14000

Target: T4, human FcγRIIb extracellular domain, …
Assay: as above
Method: as §1, §2

Row | Binder | Kd [nM]
38 | B9 | 4600
39 | B10 | 1100
40 | B11 | 5300
41 | B12 | 6000
42 | B13 | 6100

Target: T5, human FcγRIIaH extracellular domain, …
Assay: as above
Method: as §1, §2

Row | Binder | Kd [nM]
43 | B9 | 690
44 | B10 | 910
45 | B11 | 240
46 | B12 | 140
47 | B13 | 910

Target: T9, human FcγRIIIaV extracellular domain, His-tagged (human, UniProt P08637 17-208)
T9 construct: also called human FcgRIIIaV; not shown: His-tag added to the C-terminus
T9 sequence (P08637 17-208 F176V): as the sequence (P08637 17-208 F176V) above
Assay: as above
Method: as §1, §2

Row | Binder | Kd [nM]
48 | B9 | 810
49 | B10 | 24000
50 | B11 | 11000
51 | B12 | 5000
52 | B13 | 3000

Target: T6, human FcγRIIaR extracellular domain, …
Assay: as above
Method: as §1, §2

Row | Binder | Kd [nM]
53 | B9 | 1100
54 | B10 | 1900
55 | B11 | 1100
56 | B12 | 710
57 | B13 | 1800

Target: T10, cynomolgus monkey FcγRIIIaS extracellular domain, His-tagged (cynomolgus monkey, UniProt A3RFZ7 21-206 (rhesus entry))
T10 construct: also called cyno FcgRIIIaS; cynoFcγRIIIaS; not shown: His-tag added to the C-terminus
Assay: as above
Method: as §1, §2

Row | Binder | Kd [nM]
58 | B9 | 360
59 | B10 | 5700
60 | B11 | 74
61 | B12 | 2800
62 | B13 | 650
